Source: patent US11319551B2, “Methods and compositions for PPO herbicide tolerance in plants” (Monsanto Technology LLC, priority 2015, dated 2022)

Key:
[1] = system: transgenic soybean plants; assay: S-3100 tolerance of transformed soybean plantlets at five weeks; assay type: in vivo; parameters: key to Tolerance score to S-3100 at 5 weeks: 0 for poor tolerance, high damage, low green coloration; 1 for some tolerance, average damage, moderate green coloration; 2 for good tolerance, low damage, high green coloration; conditions: for tolerance to the PPO herbicide in high-throughput screening at five weeks: S-3100, over the constructs with different transit peptides; for Tolerance score to S-3100 at 5 weeks: day four post application
Protocol: The microbial HemY PPO enzymes were expressed in transgenic soybean plants, and the transgenic plants were analyzed for PPO herbicide tolerance. […] For plant transformation, the nucleotide sequences encoding the HemY PPO enzymes were codon optimized for dicot expression. This permitted the side-by-side comparison of the seven different HemY PPO enzymes with thirty-nine different targeting peptides using the same promoter and 3′UTR elements for gene expression
The plant transformation constructs were used to transform soybean excised embryos (germplasm A3555) using A. tumefaciens and standard methods known in the art. Four hundred explants were inoculated for each construct resulting in twelve containers per construct. A sterile PPO herbicide solution was used for herbicide tolerance testing. The herbicide solution consisted of 0.3 g of S-3100 in crop oil concentrate (5.0 mL) and 495 mL of deionized water. This was filtered through a 0.45 micron Nalgene® Rapid-Flow™ Tissue Culture Filter Unit and Surfactant-Free Cellulose Acetate membrane filter unit (VWR, Radnor, Pa., USA). The resulting sterile solution was shaken before application.
At five weeks post-transformation, four of the twelve plant containers per construct were sprayed with two passes of the sterile PPO herbicide solution. The treated plantlets were then enclosed in the container and received at least 15 hours of light exposure post spray each day for four days. At the end of day four post application of S-3100, the treated plantlets were photographed and scored on a visual scale of green coloration (green coloration was representative of healthy photosynthetic plant tissue as compared to photo-bleached tissue) versus damage. The scoring values were 0 for poor tolerance, high damage, low green coloration; 1 for some tolerance, average damage, moderate green coloration; and 2 for good tolerance, low damage, high green coloration. The results of herbicide application of S-3100 at five weeks is presented in Table 5, where n.d. indicates the analysis was not conducted.

[2] = system: hemG knockout E. coli strain; assay type: cell-based; conditions: acifluorfen and S-3100
[3] = PPO enzyme assay, apparent Km for substrate; assay type: biochemical; conditions: substrate protoporphyrinogen

| Molecule | tolerance to the PPO herbicide in high-throughput screening at five weeks [1] | Tolerance score to S-3100 at 5 weeks ([1]; targeting peptide TP2) | Tolerance score to S-3100 at 5 weeks ([1]; targeting peptide TP5) | Tolerance score to S-3100 at 5 weeks ([1]; targeting peptide TP8) | Tolerance score to S-3100 at 5 weeks ([1]; targeting peptide TP10) | Tolerance score to S-3100 at 5 weeks ([1]; targeting peptide TP12) | Tolerance score to S-3100 at 5 weeks ([1]; targeting peptide TP14) | Tolerance score to S-3100 at 5 weeks ([1]; targeting peptide TP18) | Tolerance score to S-3100 at 5 weeks ([1]; targeting peptide TP19) | Tolerance score to S-3100 at 5 weeks ([1]; targeting peptide TP21) | Tolerance score to S-3100 at 5 weeks ([1]; targeting peptide TP22) | Tolerance score to S-3100 at 5 weeks ([1]; targeting peptide TP23) | Tolerance score to S-3100 at 5 weeks ([1]; targeting peptide TP24) | Tolerance score to S-3100 at 5 weeks ([1]; targeting peptide TP27) | Tolerance score to S-3100 at 5 weeks ([1]; targeting peptide TP28) | Tolerance score to S-3100 at 5 weeks ([1]; targeting peptide TP29) | Tolerance score to S-3100 at 5 weeks ([1]; targeting peptide TP30) | Tolerance score to S-3100 at 5 weeks ([1]; targeting peptide TP31) | Tolerance score to S-3100 at 5 weeks ([1]; targeting peptide TP32) | Tolerance score to S-3100 at 5 weeks ([1]; targeting peptide TP33) | other results |
| --- | --- | --- | --- | --- | --- | --- | --- | --- | --- | --- | --- | --- | --- | --- | --- | --- | --- | --- | --- | --- | --- |
| R2N90: microbial HemY protoporphyrinogen oxidase, SEQ ID NO:4 (protein, listed as Bacillus pumilus) MHDNQKHLVIIGGGITGLAAAFYLEKEVEEKGLPIQISLIEASPRLGGKIQTLYKDGYIIERGPDSFLERKVSGPQLAKDVGLSDQLVNNETGQAYVLVNEKLHPMPKGAVMGIPTQISPFITTGLFSVAGKARAAMDFVLPKSKQTEDQSLGEFFRRRVGDEVVENLIEPLLSGIYAGDIDRLSLMSTFPQFYQTEQQHRSLILGMKKSQQHAKAQQVTAKKQGQFQTINQGLQSLVEAVEGKLKLTTVYKGTKVKQIEKTDGGYGLQLDSGQTLFADSAIVTTPHQSIYSMFPKEAGLEYLHDMTSTSVATVALGFKDEDVHNEYDGTGFVISRNSDFSITACTWTNKKWPHTAPKGKTLLRAYVGKAGDESIVEQSDSQIVSIVLEDLKKIMDIKADPELTTVTRWKTSMPQYHVGHQKAISNMRETFKQSYPGVYITGAAFEGVGIPDCIDQGKAAISEAVSYLFS | did not provide tolerance | 0 | 0 | 1 | 0 | 1 | 0 | 1 | 1 | 1 | 0 | 1 | 0 | 0 | 0 | 0 | 0 | 0 | 0 | 0 | Tolerance score to S-3100 at 5 weeks ([1]; targeting peptide TP9): 1; Tolerance score to S-3100 at 5 weeks ([1]; targeting peptide TP13): 0; Tolerance score to S-3100 at 5 weeks ([1]; targeting peptide TP16): 0; Tolerance score to S-3100 at 5 weeks ([1]; targeting peptide TP20): 0; growth rate of hemG knockout E. coli strain in presence of PPO herbicide [2]: slower; tolerance to acifluorfen and S-3100 compared with strain containing R2N30 or R2N40 [2]: much better; Km [3]: 2.8 µM |
| R2N100: microbial HemY protoporphyrinogen oxidase, SEQ ID NO:5 (protein, listed as Bacillus pumilus) MHDNQKHLVIIGGGITGLAAAFYLEKEVEEKGLPIQISLIEASPRLGGKIQTLYKDGYIIERGPDSFLERKVSGPQLAKDVGLSDQLVNNETGQAYVLVNETLHPMPKGAVMGIPTQISPFITTGLFSVAGKARAAMDFVLPKSKQTEDQSLGEFFRRRVGDEVVENLIEPLLSGIYAGDIDRLSLMSTFPQFYQTEQKHRSLILGMKKSQQHAKAQQVTAKKQGQFQTINQGLQALVEAVESKLKLTTIYKGTKVKQIEKTDGGYGVQLDSGQTLLADSAIVTTPHQSIYSMFPKEAGLEYLHDMTSTSVATVALGFKEEDVHNEYDGTGFVISRNSDFSITACTWTNKKWPHTAPKGKTLLRAYVGKAGDESIVEQSDHQIVSIVLEDLKKIMDIKADPELTTVTRWKTSMPQYHVGHQKAISNMRETFKQSYPGVYITGAAFEGVGIPDCIDQGKAAISEAVSYLFS | did not provide tolerance | 0 | 0 | 1 | 1 | 0 | 1 | 1 | 1 | 0 | 0 | 0 | 0 | 0 | 1 | 0 | 0 | 1 | 0 | 0 | Tolerance score to S-3100 at 5 weeks ([1]; targeting peptide TP1): 0; Tolerance score to S-3100 at 5 weeks ([1]; targeting peptide TP3): 0; Tolerance score to S-3100 at 5 weeks ([1]; targeting peptide TP4): 0; Tolerance score to S-3100 at 5 weeks ([1]; targeting peptide TP6): 0; Tolerance score to S-3100 at 5 weeks ([1]; targeting peptide TP15): 0; Tolerance score to S-3100 at 5 weeks ([1]; targeting peptide TP17): 0; Tolerance score to S-3100 at 5 weeks ([1]; targeting peptide TP25): 0; Tolerance score to S-3100 at 5 weeks ([1]; targeting peptide TP26): 1; Tolerance score to S-3100 at 5 weeks ([1]; targeting peptide TP36): 0; Tolerance score to S-3100 at 5 weeks ([1]; targeting peptide TP37): 0; growth rate of hemG knockout E. coli strain in presence of PPO herbicide [2]: slower; tolerance to acifluorfen and S-3100 compared with strain containing R2N30 or R2N40 [2]: much better; Km [3]: 0.4 µM |
